Laboratory results reported in PMC10268231 (Nature, 2021).

Tests used:
[1] = biological target: T1, CTC1;STN1;TEN1;POLA1 (p180);POLA2 (p70);PRIM1 (p49);PRIM2 (p58) (human;human;human;human;human;human;huma …, UniProt Q2NKJ3;Q9H668;Q86WV5;P09884;Q14181;P49642;P49643 …, ||||||); test: cryo-EM
[2] = biological target: T1, CTC1;STN1;TEN1;POLA1 (p180);POLA2 …; test: negative-stain EM
[3] = biological target: T1, CTC1;STN1;TEN1;POLA1 (p180);POLA2 …; test: cryo-EM; remark: listed apart in the source

TTAGGGTTAGGGTTAGGGTTAGGGTTAGGGTTAGGG (ssDNA) [6xTEL]: binds [1].

TTAGGGTTAGGGTTA (ssDNA) [(TTAGGG)2TTA 15-nt template]: binds [2].

TTAGGGTTAGGGTTAGGG (ssDNA) [3xTEL]: binds [3].
